# B1: sv1_(360–420ARM) peptide (peptide)
# peptide: not shown
# modifications: amino-terminal biotin
# Target: purified monomeric human β-actin (G-actin) (human, UniProt P60709 1-375)
# Assay: pull-down
binder,measurement,value
B1,binding result,binds

# From publication PMC3286128 (Biochemistry, 2012)
